Experimental data published in the Immune Epitope Database (IEDB).

Columns and labels:
Assay in all cases: IEDB peptide-MHC binding, purified MHC/competitive/radioactivity; filed as Kd, often an IC50 or EC50 that approximates it; ≥ and ≤ were set here for values at or beyond the usual limits of such assays
[1] = molecular target: HLA-A*03:01
[2] = molecular target: HLA-A*11:01
[3] = molecular target: HLA-A*31:01
[4] = molecular target: HLA-A*33:01
[5] = molecular target: HLA-A*68:01
[6] = source organism: Vaccinia virus WR
[7] = source organism: Dengue virus 2 Jamaica/1409/1983
[8] = source organism: Dengue virus 4 Philippines/H241/1956
[9] = source organism: Dengue virus 3 Martinique/1243/1999
[10] = source organism: Dengue virus 1 Nauru/West Pac/1974
[11] = source organism: SARS coronavirus Tor2
[12] = source organism: Lassa virus GA391
[13] = source organism: Lymphocytic choriomeningitis virus (strain Armstrong)

Sequence	Kd [1, 6] [nM]	Kd [2, 6] [nM]	Kd [3, 6] [nM]	Kd [4, 6] [nM]	Kd [5, 6] [nM]	also measured
KAFKNNLSR	301	152	25.4	4140	171	–
PVDTEFINK	19900	89.5	12700	≥ 41800	3570	–
PLHKYCVNLY	≥ 70100	≥ 25600	≥ 23200	14400	6570	–
NTILLSDKGK	96.6	190	≥ 20300	12400	1.45	–
IQKITVFNK	–	–	–	–	≥ 30300	–
SILDRIDTR	≥ 78000	499	71	113	189	–
ISIYSRPKIK	143	1670	5070	8830	1730	–
YMVTDKTAY	≥ 33700	≥ 26200	≥ 47800	≥ 44300	≥ 40900	–
IAVSMANIFR	–	–	–	–	–	Kd [3, 7]: 37.4 nM; Kd [4, 7]: 279 nM; Kd [5, 7]: 17.3 nM
NTVVRDFENY	≥ 39700	520	≥ 70000	≥ 21700	235	–
KLCKNHAEK	13	19.9	543	≥ 38700	986	–
EDKAWLVHR	–	–	–	–	–	Kd [4, 7]: 15.6 nM
ETTILDVDLR	–	–	–	–	–	Kd [5, 8]: 45 nM
LIVTFRERY	4680	187	836	4130	408	–
QAIDGEFRLR	–	–	–	–	–	Kd [5, 8]: 15.5 nM
IIVAGFSGK	9.1	25.4	689	805	1440	–
ITANPVVTKK	–	–	–	–	–	Kd [2, 9]: 84.6 nM; Kd [5, 9]: 23.9 nM
IVSSVNTTSK	–	–	–	–	–	Kd [1, 8]: 37.2 nM; Kd [2, 8]: 234 nM
QLKLNWFKK	–	–	–	–	–	Kd [1, 7]: 134 nM
KMSTDNAVY	43.4	182	9730	≥ 77700	11600	–
STVSQLAKR	–	–	–	–	–	Kd [3, 10]: ≥ 77900 nM; Kd [5, 10]: 9.66 nM
NSSIISLFY	56.7	44.6	5260	7080	125	–

Sequence	Kd [1, 6] [nM]	Kd [2, 6] [nM]	Kd [3, 6] [nM]	Kd [4, 6] [nM]	Kd [5, 6] [nM]	also measured
SVFKGFSDK	4.28	0.852	764	13500	5.49	–
ASLKNTISK	6.45	5.21	1800	≥ 77700	3750	–
YTIERIFNAK	231	36.2	3550	875	10.3	–
VLAAECTIFK	–	–	–	–	–	Kd [1, 11]: 59.9 nM; Kd [2, 11]: 104 nM; Kd [3, 11]: 133 nM; Kd [4, 11]: 70.2 nM; Kd [5, 11]: 258 nM
SLMSIISTFH	–	–	–	–	–	Kd [1, 12]: 850 nM; Kd [2, 12]: 2280 nM; Kd [3, 12]: 3740 nM; Kd [4, 12]: ≥ 25000 nM; Kd [5, 12]: 3350 nM
DFSKSTSPTR	2720	4490	278	1040	112	–
KLVTQWCCR	–	–	–	–	–	Kd [3, 8]: 11.9 nM
GVSYEVFDDY	≥ 70100	504	≥ 70000	≥ 70000	≥ 70200	–
MLINRFTMK	–	–	–	–	–	Kd [1, 7]: 3.57 nM; Kd [2, 7]: 116 nM
EINEWLSSK	201	170	7100	18.6	3.76	–
FMRDWNSKY	8370	≥ 77900	≥ 77900	≥ 66300	≥ 77700	–
NAVYQCRKLR	7270	17700	348	6350	332	–
YSKFWYLEH	–	–	–	–	–	Kd [1, 13]: ≥ 78000 nM; Kd [2, 13]: ≥ 40900 nM; Kd [3, 13]: 6010 nM; Kd [4, 13]: 12400 nM; Kd [5, 13]: ≥ 77600 nM
ITTLLNETAK	10.9	12.4	10700	≥ 20800	11.4	–
DYEVDEDIFR	–	–	–	–	–	Kd [4, 8]: 471 nM
IIKHIYEQY	1850	4140	2660	≥ 41600	2180	–
KWLWGFLSR	–	–	–	–	–	Kd ([3]; source organism: Dengue virus 1 Brazil/97-11/1997): ≥ 77900 nM
LFDFVNEKY	≥ 78000	≥ 48700	≥ 30000	≥ 77700	≥ 26100	–
MVLLQMENK	–	–	–	–	–	Kd ([2]; source organism: Dengue virus 2 Thailand/NGS-C/1944): 227 nM
HLAIMAVFK	–	–	–	–	–	Kd [1, 8]: 5.77 nM; Kd [5, 8]: 70.6 nM
LSAGVEFLK	–	–	–	–	–	Kd [1, 11]: 9.41 nM; Kd [2, 11]: 0.171 nM; Kd [3, 11]: 776 nM; Kd [4, 11]: 8180 nM; Kd [5, 11]: 0.244 nM
